Non-standard residues stand in square brackets, D forms with d. Dab = NCC[C@H](N)C(=O)O; Dap = NC[C@H](N)C(=O)O; Aib = CC(C)(N)C(=O)O
B1: Compound 39 (peptide)
peptide: H-HS[Dab](Ac)GTFTSDYSKYLD[Aib]ARAEEFVKWLEST-OH
SMILES: CC(=O)NCC[C@H](NC(=O)[C@H](CO)NC(=O)[C@@H](N)Cc1c[nH]cn1)C(=O)NCC(=O)N[C@H](C(=O)N[C@@H](Cc1ccccc1)C(=O)N[C@H](C(=O)N[C@@H](CO)C(=O)N[C@@H](CC(=O)O)C(=O)N[C@@H](Cc1ccc(O)cc1)C(=O)N[C@@H](CO)C(=O)N[C@@H](CCCCN)C(=O)N[C@@H](Cc1ccc(O)cc1)C(=O)N[C@@H](CC(C)C)C(=O)N[C@@H](CC(=O)O)C(=O)NC(C)(C)C(=O)N[C@@H](C)C(=O)N[C@@H](CCCNC(=N)N)C(=O)N[C@@H](C)C(=O)N[C@@H](CCC(=O)O)C(=O)N[C@@H](CCC(=O)O)C(=O)N[C@@H](Cc1ccccc1)C(=O)N[C@H](C(=O)N[C@@H](CCCCN)C(=O)N[C@@H](Cc1c[nH]c2ccccc12)C(=O)N[C@@H](CC(C)C)C(=O)N[C@@H](CCC(=O)O)C(=O)N[C@@H](CO)C(=O)N[C@H](C(=O)O)[C@@H](C)O)C(C)C)[C@@H](C)O)[C@@H](C)O
B2: Compound 40 (peptide)
peptide: H-HS[Dab](Ac)GTFTSDYSKYLD[Aib]ARAEEFVKWLEST-NH2
SMILES: CC(=O)NCC[C@H](NC(=O)[C@H](CO)NC(=O)[C@@H](N)Cc1c[nH]cn1)C(=O)NCC(=O)N[C@H](C(=O)N[C@@H](Cc1ccccc1)C(=O)N[C@H](C(=O)N[C@@H](CO)C(=O)N[C@@H](CC(=O)O)C(=O)N[C@@H](Cc1ccc(O)cc1)C(=O)N[C@@H](CO)C(=O)N[C@@H](CCCCN)C(=O)N[C@@H](Cc1ccc(O)cc1)C(=O)N[C@@H](CC(C)C)C(=O)N[C@@H](CC(=O)O)C(=O)NC(C)(C)C(=O)N[C@@H](C)C(=O)N[C@@H](CCCNC(=N)N)C(=O)N[C@@H](C)C(=O)N[C@@H](CCC(=O)O)C(=O)N[C@@H](CCC(=O)O)C(=O)N[C@@H](Cc1ccccc1)C(=O)N[C@H](C(=O)N[C@@H](CCCCN)C(=O)N[C@@H](Cc1c[nH]c2ccccc12)C(=O)N[C@@H](CC(C)C)C(=O)N[C@@H](CCC(=O)O)C(=O)N[C@@H](CO)C(=O)N[C@H](C(N)=O)[C@@H](C)O)C(C)C)[C@@H](C)O)[C@@H](C)O
B3: Compound 41 (peptide)
peptide: H-HS[Dap](Ac)GTFTSDYSKYLD[Aib]ARAEEFVKWLEST-NH2
SMILES: CC(=O)NC[C@H](NC(=O)[C@H](CO)NC(=O)[C@@H](N)Cc1c[nH]cn1)C(=O)NCC(=O)N[C@H](C(=O)N[C@@H](Cc1ccccc1)C(=O)N[C@H](C(=O)N[C@@H](CO)C(=O)N[C@@H](CC(=O)O)C(=O)N[C@@H](Cc1ccc(O)cc1)C(=O)N[C@@H](CO)C(=O)N[C@@H](CCCCN)C(=O)N[C@@H](Cc1ccc(O)cc1)C(=O)N[C@@H](CC(C)C)C(=O)N[C@@H](CC(=O)O)C(=O)NC(C)(C)C(=O)N[C@@H](C)C(=O)N[C@@H](CCCNC(=N)N)C(=O)N[C@@H](C)C(=O)N[C@@H](CCC(=O)O)C(=O)N[C@@H](CCC(=O)O)C(=O)N[C@@H](Cc1ccccc1)C(=O)N[C@H](C(=O)N[C@@H](CCCCN)C(=O)N[C@@H](Cc1c[nH]c2ccccc12)C(=O)N[C@@H](CC(C)C)C(=O)N[C@@H](CCC(=O)O)C(=O)N[C@@H](CO)C(=O)N[C@H](C(N)=O)[C@@H](C)O)C(C)C)[C@@H](C)O)[C@@H](C)O

Target: human glucagon receptor (human, UniProt P47871 26-477)
Sequence (P47871 26-477): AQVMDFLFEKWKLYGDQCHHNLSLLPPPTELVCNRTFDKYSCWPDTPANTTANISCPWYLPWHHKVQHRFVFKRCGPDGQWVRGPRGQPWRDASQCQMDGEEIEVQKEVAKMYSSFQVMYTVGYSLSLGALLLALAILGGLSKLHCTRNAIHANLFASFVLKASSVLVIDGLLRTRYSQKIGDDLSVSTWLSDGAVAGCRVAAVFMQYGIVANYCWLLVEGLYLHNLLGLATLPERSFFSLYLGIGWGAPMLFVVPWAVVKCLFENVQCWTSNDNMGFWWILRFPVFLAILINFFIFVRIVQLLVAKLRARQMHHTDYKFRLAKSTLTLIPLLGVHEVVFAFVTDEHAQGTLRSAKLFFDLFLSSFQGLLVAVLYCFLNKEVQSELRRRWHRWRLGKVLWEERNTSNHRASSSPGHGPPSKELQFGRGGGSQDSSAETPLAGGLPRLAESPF
Experiment: cell-based or functional assay

Row | GCG-R EC50 in vitro [nM] (cAMP, AlphaScreen, HEK293 cells expressing human Glucagon-R) | Binder
1 | 0.0044 | B1
2 | 1 | H-HSQGTFTSDYSKYLDSARAEDFVEWLEST-OH [Compound 6]
3 | 0.34 | H-HSQGTFTSDYSKYLDSARAEDFVAWLEST-OH [Compound 4]
4 | 0.0035 | B2
5 | 0.17 | H-HSQGTFTSDYSKYLDEARAKDFVEWLEKT-OH [Compound 5]
6 | 0.38 | H-HSQGTFTSDYSKYLESARAEDFVKWLEST-OH [Compound 8]
7 | 0.93 | H-HSQGTFTSDYSRYLESARAEDFVKWLEST-OH [Compound 7]
8 | 0.0038 | B3

— patent publication US20240067696A1 (ZEALAND PHARMA A S, published 2024)
